These are literature values, as cited in article PMC7905041.

A word on the Kd: it is the concentration at which binding is half-saturated.

The target of the data set is CD40 ECD (Homo sapiens) (UniProt P25942). Kind of data set: SPR. (In general: SPR reads the build-up and loss of mass on a sensor chip optically.)

As for CD40 CRD1/PLAD (from UniProt P25942), the Kd was 600 nM.
